Patent US10705076

Key:
[1] = biological target: HLA class II antigens (HLA-DR, HLA-DQ and HLA-DP); assay: Luminex dose/response, mean over 5 class II bead types; SD 298.79
[2] = biological target: HLA class II antigens (HLA-DR, HLA-DQ and HLA-DP); assay: Boltzmann sigmoid fit of the Luminex titration curve, lower asymptote
[3] = biological target: HLA class II antigens (HLA-DR, HLA-DQ and HLA-DP); assay: Boltzmann sigmoid fit of the Luminex titration curve, upper asymptote
[4] = biological target: HLA class II antigens (HLA-DR, HLA-DQ and HLA-DP); assay: Luminex dose/response, mean over 5 class II bead types, antibody 2 × 10^0 µg/ml; SD 167
[5] = biological target: HLA class II antigens (HLA-DR, HLA-DQ and HLA-DP); assay: Luminex titration on Labscreen Mixed class II beads; concentration at 50% of (MAX - MIN)
[6] = biological target: HLA class II antigens (HLA-DR, HLA-DQ and HLA-DP); assay: Luminex dose/response, mean over 5 class II bead types, antibody 5 × 10^-4 µg/ml; SD 29.6
[7] = biological target: HLA class II antigens (HLA-DR, HLA-DQ and HLA-DP); assay: Luminex dose/response, mean over 5 class II bead types, antibody 2 × 10^-3 µg/ml; SD 72.15
[8] = biological target: HLA class II antigens (HLA-DR, HLA-DQ and HLA-DP); assay: Luminex dose/response, mean over 5 class II bead types, antibody 5 × 10^-1 µg/ml; SD 160.45
[9] = biological target: HLA class II antigens (HLA-DR, HLA-DQ and HLA-DP); assay: Luminex, each Labscreen Mixed class II bead type, antibody at 2 µg/ml; SD approximately 700
[10] = biological target: HLA class II antigens (HLA-DR, HLA-DQ and HLA-DP); assay: Luminex dose/response, mean over 5 class II bead types, antibody 7.8 × 10^-3 µg/ml; SD 145.09
[11] = biological target: HLA class II antigens (HLA-DR, HLA-DQ and HLA-DP); assay: Luminex dose/response, mean over 5 class II bead types, antibody 3.13 × 10^-2 µg/ml; SD 273.56

B1: monoclonal chimeric immunoglobulin Hu-IgG1 K [F3.3] (antibody, V domains shown)
VH: EVKLEESGGGLVQPGGSMKLSCVASGFTFSNSWMNWVRQSPEKGLEWVAEIRLKSNNYATRYAESVKGRFTISRDDSKSSVYLQMNNLRSEDTAIYYCTPLSYSFDYWGQGTTVTVST
VL: QIVLTQSPAIMSASPGEKVTMTCSASSIVRYMYWFQQKPGSSPRLLIYDTSSLSSGVPVRFSGSGSGTSYSLTISRMEAEDAATYFCQQWSSYPLTFGGGTKLEIKR
- Average (fluorescence intensity) (fluorescence units) [1]: 18000
- MIN (fluorescence units) [2]: 88
- MAX (fluorescence units) [3]: 24600
- Average (fluorescence intensity) (fluorescence units) [4]: 23600
- EC50 [5]: 0.05 µg/mL
- Average (fluorescence intensity) (fluorescence units) [6]: 316
- Average (fluorescence intensity) (fluorescence units) [7]: 1090
- Average (fluorescence intensity) (fluorescence units) [8]: 22800
- fluorescence (average fluorescence units) [9]: 22000
- Average (fluorescence intensity) (fluorescence units) [10]: 3520
- Average (fluorescence intensity) (fluorescence units) [11]: 9130
